Test results: PMC2993744
“And” between values parts separate entries of the source, which are not always exact repeats. Identical values can stand only once.

Assays:
TatB(L54Bpa) (E. coli) = TatB(L54Bpa) (E. coli) (UniProt P69425); test: cross-linking
[1] = target: TatB, wild type (E. coli) (UniProt P69425); test: cross-linking

| Substance | stoichiometry N (TatB(L54Bpa) (E. coli)) | percent of the vesicle-associated pSufI in the TatB adduct [1] |
| --- | --- | --- |
| TatB(L54Bpa) (from UniProt P69425 1-171) (natural protein) | 2 and 3 |  |
| pSufI(L328Bpa) (from UniProt P26648 1-470) (natural protein) |  | 15% |
